Key:
[1] = target: humanized anti-hCD20 IgG1 (Rituximab) (human); assay: flow cytometry on cells
[2] = target: HCMV-IgG hyperimmunoglobulin preparation (Cytotect) (human); assay: flow cytometry on cells

Substance | percent reduction of FcγRIII binding to immune complexes [1] | percent reduction of FcγRIII binding to opsonized infected cells [2]
CD4-tailed gp68 (gp68-CD4) | 60% | –
HCMV gp68 on the surface of HCMV AD169/pBAC2-infected MRC-5 cells (from UniProt P16739 24-345) (natural protein) | – | 60%

From article doi:10.1101/2020.10.12.335539
